Positions count from the first letter of the chain named. Each block holds one molecule with its values, some of them ahead of it.
Key:
[1] = biological target: Barrier-to-autointegration factor Gly16Arg variant (BAF Gly16Arg), all cysteines replaced with alanines (human) (UniProt O75531); experiment: SEC; gel filtration of purified, refolded BAF on a Superdex 200 pg HiLoad 16/600 column; elution profiles of WT and Gly16Arg compared
[2] = biological target: Barrier-to-autointegration factor wild type (BAF WT), all cysteines replaced with alanines (human) (UniProt O75531); experiment: ITC; VP-ITC; 10-20 µM monomeric BAF (WT or Gly16Arg) in the cell, 100 µM lamin A/C IgFold domain in the syringe; 50 mM Hepes pH 7.4, 150 mM NaCl; 288 K; duplicate, mean values; stoichiometry set to 0.5 (one IgFold domain for each BAF dimer assumed)
[3] = biological target: Barrier-to-autointegration factor Gly16Arg variant (BAF Gly16Arg), all cysteines replaced with alanines (human) (UniProt O75531); experiment: as above
[4] = biological target: T1, BAF Gly16Arg (Cys-to-Ala background) (Homo sapiens, UniProt O75531 1-89, G16R;C67A;C77A;C80A;C85A); experiment: ITC; unphosphorylated; 288 K; mean of 2; ITC: 50 mM Hepes pH 7.4, 150 mM NaCl, 288 K; 10-20 uM BAF monomer in cell, 31-33 uM dsDNA in syringe; details: protein: recombinant; tags: His8-TEV, cleaved; chain copies: 2
T1 sequence: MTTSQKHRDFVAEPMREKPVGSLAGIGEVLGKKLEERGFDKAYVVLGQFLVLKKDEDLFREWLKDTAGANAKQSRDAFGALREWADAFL

[5] = biological target: T2, BAF WT (Cys-to-Ala background) (Homo sapiens, UniProt O75531 1-89, C67A;C77A;C80A;C85A); experiment: as above; details: protein: recombinant; tags: His8-TEV, cleaved; chain copies: 2
T2 sequence: T1 sequence with R16G

stoichiometry N [1]: 2
Molecule: Barrier-to-autointegration factor Gly16Arg variant (BAF Gly16Arg), all cysteines replaced with alanines (from UniProt O75531 1-89) (natural protein)

Kd [2]: 2700 nM | Kd [3]: 9000 nM
Molecule: lamin A/C IgFold domain (human lamin A/C residues 411 to 566) (from UniProt P02545 411-566) (domain or fragment)

B1: 22-nt dsDNA (dsDNA)
DNA 1: CTAGGGTTAGGGTTAGGGTTAG
DNA 2: CTAACCCTAACCCTAACCCTAG
Kd [4]: 16.3 ± 5.7 nM | Kd [5]: 117 ± 58 nM

From publication PMC10099716, “A De Novo Sequence Variant in Barrier-to-Autointegration Factor Is Associated with Dominant Motor Neuronopathy”
